Data reported in patent publication US20230183753A1, “Methods of in Vitro Cell Delivery” (Intellia Therapeutics, Inc., priority 2020, published 2023).
Oligonucleotides are written 5' to 3', each unit as a sugar letter and its base; * is a phosphorothioate linkage, no mark a phosphodiester; rarer units and linkages stand in square brackets, end groups in braces. Plain capitals give the bases only. m = 2'-O-methyl; r = 2'-OH (RNA)

Assays:
B2M, CD3, MHC II = experiment: Flow cytometry of antigen negative T cells (B2M, CD3, MHC II) after BC22n or Cas9 editing, Example 16A; format: cell-based, human
Text: Cells were subsequently washed, processed on a Cytoflex instrument (Beckman Coulter) and analyzed using the FlowJo software package. T cells were gated based on size, shape, viability, and antigen expression.

[1] = system: B2M, TRAC, TRBC1/2, CIITA; experiment: NGS editing profile of T cells with BC22n or Cas9 mRNA, single or four guides, LNP titration, Example 16A; format: cell-based, human; conditions: LNP;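 further: activated T cells exposed to LNPs 72 h after activation, kept at 37 °C, harvested on day 10 post activation, editing measured by NGS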
Experimental: Cells were expanded in T cell basal media for 72 hours prior to LNP transfection.
LNPs were mixed to fixed total mRNA weight ratios of 6:3:2 for editor mRNA, guide RNA, and UGI mRNA respectively as described in Table 12. […] LNP mixtures were incubated for 5 minutes at 37° C. in T cell basal media substituting 6% cynomolgus monkey serum (Bioreclamation IVT, Cat. CYN220760) for fetal bovine serum.
T cells were incubated at 37° C. with 5% CO2 for the duration of the experiment.
In total, T cells were exposed to 6 different LNPs simultaneously (editor mRNA, UGI mRNA, 4 guides).

[2] = multiple guide delivery (four guides simultaneously), locus of the guide assayed, editor BC22n, total RNA 8.6 ng
[3] = multiple guide delivery (four guides simultaneously), locus of the guide assayed, editor BC22n, total RNA 17.2 ng
[4] = multiple guide delivery (four guides simultaneously), locus of the guide assayed, editor BC22n, total RNA 34.4 ng
[5] = multiple guide delivery (four guides simultaneously), locus of the guide assayed, editor BC22n, total RNA 68.8 ng
[6] = multiple guide delivery (four guides simultaneously), locus of the guide assayed, editor BC22n, total RNA 137.5 ng
[7] = multiple guide delivery (four guides simultaneously), locus of the guide assayed, editor BC22n, total RNA 275.0 ng
[8] = multiple guide delivery (four guides simultaneously), locus of the guide assayed, editor BC22n, total RNA 550.0 ng
[9] = multiple guide delivery (four guides simultaneously), locus of the guide assayed, editor Cas9, total RNA 8.6 ng
[10] = multiple guide delivery (four guides simultaneously), locus of the guide assayed, editor Cas9, total RNA 17.2 ng
[11] = multiple guide delivery (four guides simultaneously), locus of the guide assayed, editor Cas9, total RNA 34.4 ng
[12] = multiple guide delivery (four guides simultaneously), locus of the guide assayed, editor Cas9, total RNA 68.8 ng
[13] = multiple guide delivery (four guides simultaneously), locus of the guide assayed, editor Cas9, total RNA 137.5 ng
[14] = multiple guide delivery (four guides simultaneously), locus of the guide assayed, editor Cas9, total RNA 275.0 ng
[15] = multiple guide delivery (four guides simultaneously), locus of the guide assayed, editor Cas9, total RNA 550.0 ng
[16] = single guide delivery, editor BC22n, total RNA 8.6 ng
[17] = single guide delivery, editor BC22n, total RNA 17.2 ng
[18] = single guide delivery, editor BC22n, total RNA 34.4 ng
[19] = single guide delivery, editor BC22n, total RNA 68.8 ng
[20] = single guide delivery, editor BC22n, total RNA 137.5 ng
[21] = single guide delivery, editor BC22n, total RNA 275.0 ng
[22] = single guide delivery, editor BC22n, total RNA 550.0 ng
[23] = single guide delivery, editor Cas9, total RNA 8.6 ng
[24] = single guide delivery, editor Cas9, total RNA 17.2 ng
[25] = single guide delivery, editor Cas9, total RNA 34.4 ng
[26] = single guide delivery, editor Cas9, total RNA 68.8 ng
[27] = single guide delivery, editor Cas9, total RNA 137.5 ng
[28] = single guide delivery, editor Cas9, total RNA 275.0 ng
[29] = single guide delivery, editor Cas9, total RNA 550.0 ng

B1: G018117: guide targeting CIITA (SEQ ID NO: 714) (nucleic acid)
guide: mG*mC*mG*rUrCrCrArCrArUrCrCrUrGrCrArArGrGrGrGrUrUrUrUrArGrAmGmCmUmAmGmAmAmAmUmAmGmCrArArGrUrUrArArArArUrArArGrGrCrUrArGrUrCrCrGrUrUrArUrCrAmAmCmUmUmGmAmAmAmAmAmGmUmGmGmCmAmCmCmGmAmGmUmCmGmGmUmGmCmU*mU*mU*mU
percent cells negative for antigen, HLA DR DP DQ neg, Mean % (B2M, CD3, MHC II; editor BC22n, total RNA 8.6 ng): 41.6% | percent cells negative for antigen, HLA DR DP DQ neg, Mean % (B2M, CD3, MHC II; editor BC22n, total RNA 17.2 ng): 49.9% | percent cells negative for antigen, HLA DR DP DQ neg, Mean % (B2M, CD3, MHC II; editor BC22n, total RNA 34.4 ng): 65.8% | percent cells negative for antigen, HLA DR DP DQ neg, Mean % (B2M, CD3, MHC II; editor BC22n, total RNA 68.8 ng): 74.5% | percent cells negative for antigen, HLA DR DP DQ neg, Mean % (B2M, CD3, MHC II; editor BC22n, total RNA 137.5 ng): 85.2% | percent cells negative for antigen, HLA DR DP DQ neg, Mean % (B2M, CD3, MHC II; editor BC22n, total RNA 275.0 ng): 92.5% | percent cells negative for antigen, HLA DR DP DQ neg, Mean % (B2M, CD3, MHC II; editor BC22n, total RNA 550.0 ng): 95.7% | percent cells negative for antigen, HLA DR DP DQ neg, Mean % (B2M, CD3, MHC II; editor Cas9, total RNA 8.6 ng): 34.2% | percent cells negative for antigen, HLA DR DP DQ neg, Mean % (B2M, CD3, MHC II; editor Cas9, total RNA 17.2 ng): 36.2% | percent cells negative for antigen, HLA DR DP DQ neg, Mean % (B2M, CD3, MHC II; editor Cas9, total RNA 34.4 ng): 40.7% | percent cells negative for antigen, HLA DR DP DQ neg, Mean % (B2M, CD3, MHC II; editor Cas9, total RNA 68.8 ng): 48.9% | percent cells negative for antigen, HLA DR DP DQ neg, Mean % (B2M, CD3, MHC II; editor Cas9, total RNA 137.5 ng): 55.5% | percent cells negative for antigen, HLA DR DP DQ neg, Mean % (B2M, CD3, MHC II; editor Cas9, total RNA 275.0 ng): 65.6% | percent cells negative for antigen, HLA DR DP DQ neg, Mean % (B2M, CD3, MHC II; editor Cas9, total RNA 550.0 ng): 72.0% | C-to-A/G % mean [1, 2]: 3.1% | C-to-T % mean [1, 2]: 4.6% | Indel % mean [1, 2]: 0.8% | C-to-A/G % mean [1, 3]: 2.9% | C-to-T % mean [1, 3]: 10.5% | Indel % mean [1, 3]: 1.1% | C-to-A/G % mean [1, 4]: 2.9% | C-to-T % mean [1, 4]: 18.8% | Indel % mean [1, 4]: 1.6% | C-to-A/G % mean [1, 5]: 2.7% | C-to-T % mean [1, 5]: 35.1% | Indel % mean [1, 5]: 1.6% | C-to-A/G % mean [1, 6]: 2.9% | C-to-T % mean [1, 6]: 52.9% | Indel % mean [1, 6]: 1.5% | C-to-A/G % mean [1, 7]: 2.5% | C-to-T % mean [1, 7]: 71.9% | Indel % mean [1, 7]: 1.3% | C-to-A/G % mean [1, 8]: 2.6% | C-to-T % mean [1, 8]: 81.1% | Indel % mean [1, 8]: 1.1% | C-to-A/G % mean [1, 9]: 2.6% | C-to-T % mean [1, 9]: 0.2% | Indel % mean [1, 9]: 1.4% | C-to-A/G % mean [1, 10]: 2.5% | C-to-T % mean [1, 10]: 0.2% | Indel % mean [1, 10]: 2.1% | C-to-A/G % mean [1, 11]: 2.5% | C-to-T % mean [1, 11]: 0.3% | Indel % mean [1, 11]: 3.9% | C-to-A/G % mean [1, 12]: 2.5% | C-to-T % mean [1, 12]: 0.2% | Indel % mean [1, 12]: 7.7% | C-to-A/G % mean [1, 13]: 2.2% | C-to-T % mean [1, 13]: 0.2% | Indel % mean [1, 13]: 13.3% | C-to-A/G % mean [1, 14]: 1.9% | C-to-T % mean [1, 14]: 0.1% | Indel % mean [1, 14]: 26.7% | C-to-A/G % mean [1, 15]: 1.7% | C-to-T % mean [1, 15]: 0.1% | Indel % mean [1, 15]: 42.3% | C-to-A/G % mean [1, 16]: 3.8% | C-to-T % mean [1, 16]: 14.5% | Indel % mean [1, 16]: 3.5% | C-to-A/G % mean [1, 17]: 3.5% | C-to-T % mean [1, 17]: 28.1% | Indel % mean [1, 17]: 3.9% | C-to-A/G % mean [1, 18]: 3.3% | C-to-T % mean [1, 18]: 45.9% | Indel % mean [1, 18]: 3.6% | C-to-A/G % mean [1, 19]: 3.6% | C-to-T % mean [1, 19]: 62.8% | Indel % mean [1, 19]: 3.7% | C-to-A/G % mean [1, 20]: 2.7% | C-to-T % mean [1, 20]: 78.9% | Indel % mean [1, 20]: 2.7% | C-to-A/G % mean [1, 21]: 2.6% | C-to-T % mean [1, 21]: 86.3% | Indel % mean [1, 21]: 2.0% | C-to-A/G % mean [1, 22]: 2.6% | C-to-T % mean [1, 22]: 92.3% | Indel % mean [1, 22]: 1.1% | C-to-A/G % mean [1, 23]: 2.5% | C-to-T % mean [1, 23]: 0.3% | Indel % mean [1, 23]: 6.0% | C-to-A/G % mean [1, 24]: 2.4% | C-to-T % mean [1, 24]: 0.2% | Indel % mean [1, 24]: 11.2% | C-to-A/G % mean [1, 25]: 2.1% | C-to-T % mean [1, 25]: 0.2% | Indel % mean [1, 25]: 20.8% | C-to-A/G % mean [1, 26]: 1.9% | C-to-T % mean [1, 26]: 0.2% | Indel % mean [1, 26]: 33.2% | C-to-A/G % mean [1, 27]: 1.3% | C-to-T % mean [1, 27]: 0.1% | Indel % mean [1, 27]: 51.2% | C-to-A/G % mean [1, 28]: 0.9% | C-to-T % mean [1, 28]: 0.1% | Indel % mean [1, 28]: 64.5% | C-to-A/G % mean [1, 29]: 0.6% | C-to-T % mean [1, 29]: 0.1% | Indel % mean [1, 29]: 78.4%
